Legend:
Experiment in all cases: cell-based or functional assay
[1] = target: SARS-CoV2 Spike D614G (on pVSV-Luc-SARS-CoV2-S pseudovirus) (SARS-CoV2) (UniProt P0DTC2)
[2] = target: SARS-CoV2 Spike, Omicron BA.1 variant (on pseudovirus) (SARS-CoV2)
[3] = target: SARS-CoV2 Spike, Omicron BA.2 variant (on pseudovirus) (SARS-CoV2)
[4] = target: SARS-CoV2 Spike, Omicron BA.4.6 variant (on pseudovirus) (SARS-CoV2)
[5] = target: SARS-CoV2 Spike, Omicron BA.2.12.1 variant (on pseudovirus) (SARS-CoV2)
[6] = target: SARS-CoV2 Spike, Omicron BA.4/BA.5 variant (on pseudovirus) (SARS-CoV2)
[7] = target: SARS-CoV2 Spike, Omicron XBB1.5 variant (on pseudovirus) (SARS-CoV2)

Sequence of ACE2 (615/615)-IgG-Fc (Q9BYF1 18-615 limits assumed): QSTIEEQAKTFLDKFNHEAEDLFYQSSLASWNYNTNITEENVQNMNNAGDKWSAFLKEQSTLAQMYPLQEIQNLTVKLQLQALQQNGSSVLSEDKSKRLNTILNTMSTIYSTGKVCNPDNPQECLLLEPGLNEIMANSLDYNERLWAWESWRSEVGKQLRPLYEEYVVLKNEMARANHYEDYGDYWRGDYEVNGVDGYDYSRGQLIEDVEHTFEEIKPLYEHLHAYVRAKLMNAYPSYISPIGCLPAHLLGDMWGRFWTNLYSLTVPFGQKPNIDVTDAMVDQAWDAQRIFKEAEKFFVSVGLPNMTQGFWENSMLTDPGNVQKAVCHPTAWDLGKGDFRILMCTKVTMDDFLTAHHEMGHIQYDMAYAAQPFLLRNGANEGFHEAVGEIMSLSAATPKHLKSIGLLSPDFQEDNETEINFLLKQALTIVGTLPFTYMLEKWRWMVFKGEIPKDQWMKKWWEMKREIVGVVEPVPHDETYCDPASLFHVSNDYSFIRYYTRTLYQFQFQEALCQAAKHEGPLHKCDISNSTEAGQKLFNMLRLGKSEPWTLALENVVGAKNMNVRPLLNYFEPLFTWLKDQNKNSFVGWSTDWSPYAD
Sequence of ACE2 (615/615)-IgG-Fc (Q9BYF1 18-615 limits assumed): as above

Substance	Fold reduction from against D614G [1] [fold]	IC50 [M], neutralization [1] [M]	Fold reduction from against D614G [2] [fold]	IC50 [M], neutralization [2] [M]	Fold reduction from against D614G [3] [fold]	IC50 [M], neutralization [3] [M]	Fold reduction from against D614G [4] [fold]	IC50 [M], neutralization [4] [M]	Fold reduction from against D614G [5] [fold]	IC50 [M], neutralization [5] [M]	Fold reduction from against D614G [6] [fold]	IC50 [M], neutralization [6] [M]	IC50 [M], neutralization [7] [M]
ACE2 (615/615)-IgG-Fc (from UniProt Q9BYF1 18-615; Q9BYF1 18-615) (Fc fusion)	19.4	1.03e-10	1.25	6.61e-12	3.51	1.86e-11	6.32	3.35e-11	2.32	1.23e-11	11.6	6.17e-11	–
ACE2 v2.4 (615)-Fc (x2), second row of this label in Table 6 (Fc fusion)	515	2.73e-09	240	1.27e-09	515	2.73e-09	343	1.82e-09	468	2.48e-09	317	1.68e-09	–
REGEN-COV (REGN10933+REGN10987)	–	5.2e-12	–	–	–	–	–	–	–	–	–	–	> 2e-08

— US20240252601A1
